Test results taken from patent US20020151463A1.

What was measured:
[1] = target: HEK-293 clones transfected with hMC1R, hMC3R or hMC5R; experiment: radioligand binding with 125I-NDP-α-MSH on transfected HEK-293 clones
[2] = target: murine MSH receptor (mouse) (UniProt Q01727); experiment: competition binding of cold ACTH against 125I-ACTH1-39 on Cloudman M-3 melanoma cells
rat MC3-R (rat) = rat MC3-R (rat) (UniProt P32244); experiment: cell-based or functional assay
Sequence of rat MC3-R (rat) (P32244 whole entry): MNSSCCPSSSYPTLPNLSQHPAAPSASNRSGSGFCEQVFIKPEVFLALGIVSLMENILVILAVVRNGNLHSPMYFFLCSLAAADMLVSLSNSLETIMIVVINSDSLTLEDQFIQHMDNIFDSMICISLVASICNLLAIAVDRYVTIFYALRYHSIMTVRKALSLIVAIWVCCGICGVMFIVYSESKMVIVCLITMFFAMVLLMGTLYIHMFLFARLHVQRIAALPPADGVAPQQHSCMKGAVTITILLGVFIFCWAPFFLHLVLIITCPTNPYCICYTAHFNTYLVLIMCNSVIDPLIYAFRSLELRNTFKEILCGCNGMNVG

Sequence of adrenocorticotropic hormone (unlabelled) (peptide) (P01189 138-176): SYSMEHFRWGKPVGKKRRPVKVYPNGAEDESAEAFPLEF
Sequence of murine MSH receptor (mouse) (Q01727 whole entry): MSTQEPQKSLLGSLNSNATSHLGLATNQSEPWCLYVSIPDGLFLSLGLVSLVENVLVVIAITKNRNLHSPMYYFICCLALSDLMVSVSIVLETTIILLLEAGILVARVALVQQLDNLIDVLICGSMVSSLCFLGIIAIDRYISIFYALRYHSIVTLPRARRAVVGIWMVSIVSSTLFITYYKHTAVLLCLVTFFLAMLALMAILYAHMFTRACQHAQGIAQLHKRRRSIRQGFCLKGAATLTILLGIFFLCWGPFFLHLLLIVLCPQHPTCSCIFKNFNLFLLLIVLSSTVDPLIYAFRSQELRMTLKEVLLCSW

125I-labeled Nle,D-Phe (NDP)-α-MSH (from UniProt P01189 138-150) (peptide)
Ki [1]: 0.11 to 0.58 nM

adrenocorticotropic hormone (unlabelled) (peptide)
Kd [2]: 63 nM

α-melanocyte-stimulating hormone (from UniProt P01189 138-150) (peptide)
EC50 for adenylyl cyclase activation, rat MC3-R in 293 cells, α-MSH alone (rat MC3-R (rat)): 4.2 nM
EC50 for adenylyl cyclase activation, rat MC3-R in 293 cells, α-MSH plus 0.7 nM murine agouti (rat MC3-R (rat)): 4.1 nM
